{"source": "paper PMC5007091", "about": "(Molecular Biology of the Cell, 2016)", "proteins": {"B1": {"name": "Cdc10 (natural protein)", "chain": "MDPLSSVQPASYVGFDTITNQIEHRLLKKGFQFNIMVVGQSGLGKSTLINTLFASHLIDSATGDDISALPVTKTTEMKISTHTLVEDRVRLNINVIDTPGFGDFIDNSKAWEPIVKYIKEQHSQYLRKELTAQRERFITDTRVHAILYFLQPNGKELSRLDVEALKRLTEIANVIPVIGKSDTLTLDERTEFRELIQNEFEKYNFKIYPYDSEELTDEELELNRSVRSIIPFAVVGSENEIEINGETFRGRKTRWSAINVEDINQCDFVYLREFLIRTHLQDLIETTSYIHYEGFRARQLIALKENANSRSSAHMSSNAIQR"}}, "target": "the molecule itself", "experiment": "split reporter", "data": [{"protein": "B1", "values": [{"measurement": "fluorescence at the bud neck, fold over the negative controls", "value": "> 20", "unit": "fold"}]}]}
